Assay results published in patent US20090202556A1 (Kyowa Kirin, published 2009).
One block for each binder: values may come before it.

Legend:
[1] = target: T1, human CLDN4 (Claudin-4) expressed by human cancer cell lines (Capan-2, HPAF-II, MCF7, HT-29, SW480, 22Rv1, DU … (human, UniProt O14493 1-209)); experiment: FCM on live Capan-2 and HPAF-II cells, 8.6 µg/ml
T1 construct: Endogenous protein on cell lines; MCF7 is said to express both CLDN3 and CLDN4; also called CLDN4 expressed in breast cancer cells, colorectal cancer cells and prostate cancer cells
T1 sequence: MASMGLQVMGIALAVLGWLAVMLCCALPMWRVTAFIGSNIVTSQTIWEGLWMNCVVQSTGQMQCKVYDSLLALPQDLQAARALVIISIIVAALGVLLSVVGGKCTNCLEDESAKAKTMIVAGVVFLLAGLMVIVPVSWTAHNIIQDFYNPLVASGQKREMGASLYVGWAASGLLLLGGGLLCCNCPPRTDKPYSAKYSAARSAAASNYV
Experimental: Human pancreatic cancer cell lines Capan-2 and HPAF-II human lymphoma cell line Daudi (ATCC CCL-213), human breast cancer cell line MCF7 (ATCC HTB-22), human colorectal cancer cell lines HT-29 (ATCC HTB-38) and SW480 (ATCC CCL-228) and human prostate cancer cell line s 22Rv1 (ATCC CRL-2505), DU 145 (ATCC HTB-81) and PC-3 (ATCC CRL-1435) were cultured for 3 to 4 days, and adhered cells were peeled off using 0.02% EDTA solution (manufactured by Nacalai Tesque) to recover the cells. The thus recovered cells were washed with PBS and, in order to prevent nonspecific adsorption of antibodies, blocked at ice temperature for 30 minutes using BSA-PBS. The cells were dispensed at 1 to 5×10⁵ cells/100 μl BSA-PBS into a 96-well U bottom plate and centrifuged (1,500 rpm, 5 minutes), the supernatant was removed and then a mouse anti-serum to be immunized, a culture supernatant of hybridoma KM3900 (8.6 μg/ml), anti-CLDN4 monoclonal antibodies KM3900 and KM3907 diluted to 5 μg/ml or a mouse IgG2a isotype control (manufactured by DAKO) was dispensed as the primary antibody at 100 μl/well and allowed to react at ice temperature for 60 minutes. […] After the reaction, the cells were washed once with BSA-PBS and suspended in PBS, and the fluorescent intensity was measured by FCM (manufactured by Beckman Coulter). […]

[2] = target: T1, human CLDN4 (Claudin-4) expressed by …; experiment: FCM on live cancer cell lines, 5 µg/ml
Experimental: Human pancreatic cancer cell lines Capan-2 and HPAF-II human lymphoma cell line Daudi (ATCC CCL-213), human breast cancer cell line MCF7 (ATCC HTB-22), human colorectal cancer cell lines HT-29 (ATCC HTB-38) and SW480 (ATCC CCL-228) and human prostate cancer cell line s 22Rv1 (ATCC CRL-2505), DU 145 (ATCC HTB-81) and PC-3 (ATCC CRL-1435) were cultured for 3 to 4 days, and adhered cells were peeled off using 0.02% EDTA solution (manufactured by Nacalai Tesque) to recover the cells. The thus recovered cells were washed with PBS and, in order to prevent nonspecific adsorption of antibodies, blocked at ice temperature for 30 minutes using BSA-PBS. The cells were dispensed at 1 to 5×10⁵ cells/100 μl BSA-PBS into a 96-well U bottom plate and centrifuged (1,500 rpm, 5 minutes), the supernatant was removed and then a mouse anti-serum to be immunized, a culture supernatant of hybridoma KM3900 (8.6 μg/ml), anti-CLDN4 monoclonal antibodies KM3900 and KM3907 diluted to 5 μg/ml or a mouse IgG2a isotype control (manufactured by DAKO) was dispensed as the primary antibody at 100 μl/well and allowed to react at ice temperature for 60 minutes. […] After the reaction, the cells were washed once with BSA-PBS and suspended in PBS, and the fluorescent intensity was measured by FCM (manufactured by Beckman Coulter).

binding result [1]: binds
B1: anti-CLDN4 monoclonal antibody KM3900 produced by hybridoma KM3900 (FERM BP-10751) (antibody, V domains shown)
VH: EVQLQQSGPELVKPGASVKISCKASGYTFTDYYMNWVKQSHGKSLEWIGDVVPNNGVPTYNQKFKGKATLTVDKSSSTAYMELRSLTSEDSAVYYCARPHYYYAGRSGAMDYWGQGTSVTVSS
VL: QIVLTQSPAIMSASLGERVTMTCTASSTVSSTYLHWYQQKPGSSPKLWIYSTSNLASGVPARFSGSGSGTSYSLTISSMEAEDAATYYCHQYHRSPPTFGGGTKLEIK
notes: Used as hybridoma culture supernatant (8.6 µg/ml) or purified antibody (5 µg/ml); also called anti-CLDN4 mouse antibody KM3900

binding result [2]: binds
B2: anti-CLDN4 monoclonal antibody KM3907 produced by hybridoma KM3907 (FERM BP-10885) (antibody, mouse IgG2a, V domains shown)
VH: QVQLQQSGPELVKPGASVKISCKASGYAISTSWMNWVKQRPGKGLEWIGRINPGDGNTNYNGKFMAKATLTADKPSSTAYMQLSSLTSEDSAVYFCTRGDRWSGAMDYWGQGTSVTVSS
VL: GNVLTQSPAIMSASPGEKVTMTCRASSSVSSSYLHWYQQKSGASPKLWIYSTSNLASGVPVRFSGSGSGTSYSLTISSVEAEDAATYYCQQYSGFPLTFGAGTKLELK
